Measurements published in paper PMC13570301 (2026).

B1: CHIP wild type, recombinant, C-terminal His tag (pET30-CHIP-His) (enzyme)
chain: MKGKEEKEGGARLGAGGGSPEKSPSAQELKEQGNRLFVGRKYPEAAACYGRAITRNPLVAVYYTNRALCYLKMQQHEQALADCRRALELDGQSVKAHFFLGQCQLEMESYDEAIANLQRAYSLAKEQRLNFGDDIPSALRIAKKKRWNSIEERRIHQESELHSYLSRLIAAERERELEECQRNHEGDEDDSHVRAQQACIEAKHDKYMADMDELFSQVDEKRKKRDIPDYLCGKISFELMREPCITPSGITYDRKDIEEHLQRVGHFDPVTRSPLTQEQLIPNLAMKEVIDAFISENGWVEDY
B2: CHIP G33S, recombinant, C-terminal His tag (enzyme)
chain: MKGKEEKEGGARLGAGGGSPEKSPSAQELKEQSNRLFVGRKYPEAAACYGRAITRNPLVAVYYTNRALCYLKMQQHEQALADCRRALELDGQSVKAHFFLGQCQLEMESYDEAIANLQRAYSLAKEQRLNFGDDIPSALRIAKKKRWNSIEERRIHQESELHSYLSRLIAAERERELEECQRNHEGDEDDSHVRAQQACIEAKHDKYMADMDELFSQVDEKRKKRDIPDYLCGKISFELMREPCITPSGITYDRKDIEEHLQRVGHFDPVTRSPLTQEQLIPNLAMKEVIDAFISENGWVEDY
B3: CHIP P228S, recombinant, C-terminal His tag (enzyme)
chain: MKGKEEKEGGARLGAGGGSPEKSPSAQELKEQGNRLFVGRKYPEAAACYGRAITRNPLVAVYYTNRALCYLKMQQHEQALADCRRALELDGQSVKAHFFLGQCQLEMESYDEAIANLQRAYSLAKEQRLNFGDDIPSALRIAKKKRWNSIEERRIHQESELHSYLSRLIAAERERELEECQRNHEGDEDDSHVRAQQACIEAKHDKYMADMDELFSQVDEKRKKRDISDYLCGKISFELMREPCITPSGITYDRKDIEEHLQRVGHFDPVTRSPLTQEQLIPNLAMKEVIDAFISENGWVEDY

biological target: UBE2D2 (1–147), from the plasmid pHis//2 Hs UBE2D2 (1–147) (human, UniProt P62837 1-147); assay: BLI
Sequence (P62837 whole entry): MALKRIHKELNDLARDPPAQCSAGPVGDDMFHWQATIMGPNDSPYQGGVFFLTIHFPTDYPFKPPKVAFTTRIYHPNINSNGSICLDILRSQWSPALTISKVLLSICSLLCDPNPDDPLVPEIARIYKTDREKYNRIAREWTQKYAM

Point of comparison: B3, Kd 44.9 µM. Against it:
- B1 — 3.1-fold lower, 14.3 µM
- B2 — 1.9-fold lower, 24.2 µM
